Laboratory results taken from paper PMC7642682, “SPOR Proteins Are Required for Functionality of Class A Penicillin-Binding Proteins in Escherichia coli” (mBio, 2020).

Legend:
[1] = target: T1, penicillin-binding protein 1B (PBP1B) (Escherichia coli, UniProt P02919 1-844); test: cell-based or functional assay
T1 sequence (looked up): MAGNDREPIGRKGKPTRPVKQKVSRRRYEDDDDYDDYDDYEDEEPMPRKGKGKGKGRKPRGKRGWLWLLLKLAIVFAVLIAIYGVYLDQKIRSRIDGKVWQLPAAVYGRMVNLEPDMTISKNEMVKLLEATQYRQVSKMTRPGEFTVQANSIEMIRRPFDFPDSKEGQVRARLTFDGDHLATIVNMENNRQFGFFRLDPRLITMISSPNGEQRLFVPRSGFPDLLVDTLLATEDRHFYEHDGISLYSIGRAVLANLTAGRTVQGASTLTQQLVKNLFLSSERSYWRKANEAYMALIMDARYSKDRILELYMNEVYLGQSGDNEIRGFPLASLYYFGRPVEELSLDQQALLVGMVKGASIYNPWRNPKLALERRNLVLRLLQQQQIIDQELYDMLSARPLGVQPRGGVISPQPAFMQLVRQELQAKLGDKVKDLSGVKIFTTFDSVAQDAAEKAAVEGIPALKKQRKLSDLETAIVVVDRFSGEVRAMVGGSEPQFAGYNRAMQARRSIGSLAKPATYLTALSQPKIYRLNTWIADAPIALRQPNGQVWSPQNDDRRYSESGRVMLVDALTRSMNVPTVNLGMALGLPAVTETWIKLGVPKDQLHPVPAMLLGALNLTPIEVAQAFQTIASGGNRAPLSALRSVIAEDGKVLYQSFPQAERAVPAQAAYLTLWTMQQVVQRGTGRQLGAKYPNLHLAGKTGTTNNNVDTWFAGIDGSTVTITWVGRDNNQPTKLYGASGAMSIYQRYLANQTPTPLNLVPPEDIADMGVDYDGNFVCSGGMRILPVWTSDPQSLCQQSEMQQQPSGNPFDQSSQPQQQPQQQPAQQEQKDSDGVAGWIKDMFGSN

[2] = target: T2, penicillin-binding protein 1A (PBP1A) (Escherichia coli, UniProt P02918 1-850); test: cell-based or functional assay
T2 sequence (looked up): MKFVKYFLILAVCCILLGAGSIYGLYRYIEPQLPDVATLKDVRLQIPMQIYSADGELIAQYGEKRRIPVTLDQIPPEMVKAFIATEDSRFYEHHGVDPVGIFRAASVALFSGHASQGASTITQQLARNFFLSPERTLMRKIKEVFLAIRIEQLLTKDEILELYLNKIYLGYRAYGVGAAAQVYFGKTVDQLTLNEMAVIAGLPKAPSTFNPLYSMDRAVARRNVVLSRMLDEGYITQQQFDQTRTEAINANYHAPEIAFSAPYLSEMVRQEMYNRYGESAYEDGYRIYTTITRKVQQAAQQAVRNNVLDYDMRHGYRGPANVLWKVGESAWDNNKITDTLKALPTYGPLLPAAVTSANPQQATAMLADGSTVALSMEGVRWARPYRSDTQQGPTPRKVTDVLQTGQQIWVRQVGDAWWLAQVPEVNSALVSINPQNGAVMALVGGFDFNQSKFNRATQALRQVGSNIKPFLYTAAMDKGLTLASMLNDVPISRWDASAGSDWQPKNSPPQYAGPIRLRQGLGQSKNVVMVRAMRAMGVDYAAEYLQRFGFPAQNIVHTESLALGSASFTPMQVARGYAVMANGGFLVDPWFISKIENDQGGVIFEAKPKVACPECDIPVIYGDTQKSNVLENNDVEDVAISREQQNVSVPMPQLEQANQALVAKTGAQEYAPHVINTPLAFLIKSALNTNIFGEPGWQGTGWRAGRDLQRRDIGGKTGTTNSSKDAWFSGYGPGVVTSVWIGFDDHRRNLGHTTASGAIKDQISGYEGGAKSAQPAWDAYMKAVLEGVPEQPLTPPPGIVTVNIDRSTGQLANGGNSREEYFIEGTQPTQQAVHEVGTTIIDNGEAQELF

B1: His-DamX (natural protein, Escherichia coli, UniProt P11557 1-428, looked up)
chain: MDEFKPEDELKPDPSDRRTGRSRQSSERSERTERGEPQINFDDIELDDTDDRRPTRAQKERNEEPEIEEEIDESEDETVDEERVERRPRKRKKAASKPASRQYMMMGVGILVLLLLIIGIGSALKAPSTTSSDQTASGEKSIDLAGNATDQANGVQPAPGTTSAENTQQDVSLPPISSTPTQGQTPVATDGQQRVEVQGDLNNALTQPQNQQQLNNVAVNSTLPTEPATVAPVRNGNASRDTAKTQTAERPSTTRPARQQAVIEPKKPQATVKTEPKPVAQTPKRTEPAAPVASTKAPAATSTPAPKETATTAPVQTASPAQTTATPAAGAKTAGNVGSLKSAPSSHYTLQLSSSSNYDNLNGWAKKENLKNYVVYETTRNGQPWYVLVSGVYASKEEAKKAVSTLPADVQAKNPWAKPLRQVQADLK
- GTase rate of PBP1B (consumption of fluorescent dansyl-lipid II), fold over PBP1B alone; 0.5 uM PBP1B, 2 uM purified DamX [1]: 2 fold

B2: His-DedD (natural protein, Escherichia coli, UniProt P09549 1-220, looked up)
chain: MASKFQNRLVGTIVLVALGVIVLPGLLDGQKKHYQDEFAAIPLVPKAGDRDEPDMMPAATQALPTQPPEGAAEEVRAGDAAAPSLDPATIAANNTEFEPEPAPVAPPKPKPVEPPKPKVEAPPAPKPEPKPVVEEKAAPTGKAYVVQLGALKNADKVNEIVGKLRGAGYRVYTSPSTPVQGKITRILVGPDASKDKLKGSLGELKQLSGLSGVVMGYTPN
- GTase rate of PBP1B (consumption of fluorescent dansyl-lipid II), fold over PBP1B alone; 0.5 uM PBP1B, 2 uM purified DedD [1]: 2.6 fold
- GTase rate of PBP1A (consumption of fluorescent dansyl-lipid II), fold over PBP1A alone; 0.5 uM PBP1A, 2 uM purified DedD [2]: 1.8 fold
